Experimental data as given in publication PMC10531710, “Overexpression of the First Peanut-Susceptible Gene, AhS5H1 or AhS5H2, Enhanced Susceptibility to Pst DC3000 in Arabidopsis” (International Journal of Molecular Sciences, 2023).

B1: AhS5H1 (Arachis hypogaea) (protein)
chain: MANTKPLLLADQVTNMKHIPLNFIRPLNDRPNLQNLQSSNDNNESIPIIDLQGLDEDNDASNRSQIIHNIGQACQDYGFFQIVNHGVPEDVVGKMMKVGKAFFDLPESERMKNYSDDPSKTTRLSTSFNVKTEKVANWRDFLRLHCHPLEDYIQEWPTNPPSFREDVGEYSKHMRKLSLKLLEAISESLGLEKDYMEKALGKHGQHMAINYYPPCPEPDLTYGLPAHADPNAITILLQNHVPGLQVLKDGHWVTVKHVPNTFIVNIGDQIQVISNDKYKSVLHRALVNCEKERMSIPTFYCPSPEALVGPAPQLIDQHNDPPKYTNFTYAEYYHKFWNRGLSKETCVDLFKV
notes: full ORF 1059 bp, 353 residues as printed; modified pGEX (GST) vector with C-terminal 3xMyc; E. coli BL21(DE3); glutathione Sepharose purified; tag removal not mentioned

Experiments:
O=C(O)c1ccccc1O = test system: T1, O=C(O)c1ccccc1O; experiment: purified protein; assay type: biochemical, Arachis hypogaea; conditions: 1 mM 2-oxoglutarate, 1 mM ascorbate, 0.4 mM FeSO4, 0.1 mg/mL catalase, 5 mM DTT, 50 mM phosphate pH 6.8, 40 °C, 30 min
T1 construct: full ORF 1014 bp, 338 residues as printed; modified pGEX (GST) vector with C-terminal 3xMyc; E. coli BL21(DE3); glutathione Sepharose purified; tag removal not mentioned

purified protein = substrate: O=C(O)c1ccccc1O; experiment: purified protein; assay type: biochemical, Arachis hypogaea; conditions: 1 mM 2-oxoglutarate, 1 mM ascorbate, 0.4 mM FeSO4, 0.1 mg/mL catalase, 5 mM DTT, 50 mM phosphate pH 6.8, 40 °C, 30 min

Molecule | Km (O=C(O)c1ccccc1O) [µM] | Km (purified protein) [µM]
AhS5H2 (Arachis hypogaea) | 190.52 ± 26.33 | –
B1 | – | 44.72 ± 6.95
